The source of these data is patent publication US20160176943A1 (INSERM INSITITUT NATIONAL DE LA SANTE ET DE LA RECHERCHE …, published 2016).

The target of assay [1] is NKG2D receptor on NK cells (UniProt P26718). Description: cell-based or functional assay.
In assay [2] the target is T1, recombinant NKG2D-Fc chimeric protein (UniProt P26718 78-216).
T1 construct: Bought from R&D Systems; also called NKG2D-Fc protein; recombinant NKG2D-Fc chimera protein; not shown: Fc part
T1 sequence (looked up): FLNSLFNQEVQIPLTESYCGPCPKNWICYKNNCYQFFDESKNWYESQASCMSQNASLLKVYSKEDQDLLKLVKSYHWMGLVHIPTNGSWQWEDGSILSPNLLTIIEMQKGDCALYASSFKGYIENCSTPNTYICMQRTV
Description: NKG2D-Fc staining of COS transfectants, facs and cellular immunofluorescence. The method, then:
FIG. 10. A). MICA-B2 is a novel ligand for the NKG2D receptor. COS cells were transfected with cDNA for WT MICA or MICA isoforms. Forty-eight hours post-transfection cells welle incubated with recombinant NKG2D-Fc chimeric protein. […] Staining was analyzed by fluorescent microscopy and positive signal was converted into black and white picture, positive cells intercating with NKG2D-Fc are shown in black. COS cells transfected with the WT cDNA for MICA are used as positive controls. B) Visualisation of NKG2D binding on MICA-B2 isoform expression analyzed by confocal microscopy on COS-7 transfected cells using a recombinant NKG2D-Fc protein. Transfected cells were detected using an anti-Flag (M2) monoclonal antibody. NKG2D-Fc binding and Flag intracellular detection were achieved 48 h post-transfection before and after cell fixation and permeabilization, respectively. COS cells transfected with the WT cDNA for MICA are used as positive controls. Immunofluorescence staining was obtained using an FITC-labeled secondary antibody and shown in black and white, specific staining appears in white.
To functionally assess a role for the MICA isoforms in immune regulation, the possible interaction of MICA isoforms with NKG2D receptor, the natural receptor of full length MICA, was investigated by facs and by cellular immunofluorescence. […]

In the case of “soluble recombinant isoform MICA-B2 (from UniProt Q29983 24-307) (ligand)”, in assay [1], the NKG2D expression on NK (NKL) cells after overnight incubation with soluble protein, flow cytometry is 47.5%.

B1: MICA-D isoform expressed on transfected cells (ligand)
chain: EPHSLRYNLTVLSGDGSVQSGFLAEVHLDGQPFLRCDRQKCRAKPQGQWAEDVLGNKTWDRETRDLTGNGKDLRMTLAHIKDQKEGKVLVLQSHWQTFHVSAVAAAAAAAAAIFVIIIFYVCCCKKKTSAAEGPELVSLQVLDQHPVGTSDHRDATQLGFQPLMSDLGSTGSTEGA
notes: also called isoform D; not shown: C-terminal FLAG tag (three copies of FLAG in 3' from the pCMV-3Tag vector)
Consider B1, for which the binding result in assay [2] was “no binding”.

B2: MICA-B1 isoform expressed in transfected cells (ligand)
chain: EPHSLRYNLTVLSGDGSVQSGFLAEVHLDGQPFLRCDRQKCRAKPQGQWAEDVLGNKTWDRETRDLTGNGKDLRMTLAHIKDQKEVLQSSDLGHERQEFLEGRCHEDQDTLSRYACRLPAGTTAISKIRRSPEENSAPHGECHPQRGLEGQHYRDMQGFWLLSLEYHTELASGWGKVLVLQSHWQTFHVSAVAAAAAAAAAIFVIIIFYVCCCKKKTSAAEGPELVSLQVLDQHPVGTSDHRDATQLGFQPLMSDLGSTGSTEGA
notes: Alpha1 domain, novel polypeptide region, TM and CYT; also called isoform B1; not shown: C-terminal FLAG tag (three copies of FLAG in 3' from the pCMV-3Tag vector)
With B2, in assay [2], the binding result was “no binding”.
